Holding throughout (settings): both partners purified
For assay [1], the target named is T1, BRR2 C-terminal cassette (BRR2^CC, residues 1282-2136) (human, UniProt O75643 1282-2136).
T1 construct: BRR2 (SNRNP200), human, C-terminal helicase cassette, residues 1282-2136; The His10 tag is named only for the peptide SPOT array; also called His10-BRR2^CC
T1 sequence (looked up): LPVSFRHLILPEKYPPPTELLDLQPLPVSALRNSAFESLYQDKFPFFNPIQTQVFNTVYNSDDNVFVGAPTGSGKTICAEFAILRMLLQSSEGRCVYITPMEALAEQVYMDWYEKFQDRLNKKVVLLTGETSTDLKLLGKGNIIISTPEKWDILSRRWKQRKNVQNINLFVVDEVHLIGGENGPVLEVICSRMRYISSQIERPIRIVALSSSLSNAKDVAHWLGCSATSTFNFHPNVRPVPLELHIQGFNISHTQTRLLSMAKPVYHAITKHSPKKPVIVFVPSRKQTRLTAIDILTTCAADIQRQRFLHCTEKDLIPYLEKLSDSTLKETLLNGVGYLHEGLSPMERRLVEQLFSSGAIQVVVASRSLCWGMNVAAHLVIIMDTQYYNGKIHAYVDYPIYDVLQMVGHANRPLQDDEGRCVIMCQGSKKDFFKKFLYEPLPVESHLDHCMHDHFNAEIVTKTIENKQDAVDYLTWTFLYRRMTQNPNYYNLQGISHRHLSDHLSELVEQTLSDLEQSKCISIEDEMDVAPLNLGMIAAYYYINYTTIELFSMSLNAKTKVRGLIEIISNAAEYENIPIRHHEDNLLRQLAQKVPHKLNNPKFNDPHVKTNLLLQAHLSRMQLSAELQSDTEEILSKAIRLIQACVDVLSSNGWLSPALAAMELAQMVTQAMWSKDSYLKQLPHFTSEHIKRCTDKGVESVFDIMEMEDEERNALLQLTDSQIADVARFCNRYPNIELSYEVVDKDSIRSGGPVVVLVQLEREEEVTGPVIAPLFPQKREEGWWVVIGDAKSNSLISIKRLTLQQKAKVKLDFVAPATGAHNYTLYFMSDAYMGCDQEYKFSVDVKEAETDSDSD
Put plainly: SEC; analytical SEC, Superdex 200 increase 3.2/300, 20 mM Tris-HCl pH 8.0, 200 mM NaCl, 1 mM DTT; 75 ug BRR2 construct or PRPF8^Jab1 with 1.5-fold molar excess of partner, pre-incubated 10 min on ice; fractions by SDS-PAGE.

For assay [2], the target named is T2, BRR2 helicase region (BRR2^HR, residues 395-2129) (human, UniProt O75643 395-2129).
T2 construct: For the cryoEM complex with C9ORF78 the co-purified proteins were treated with TEV protease and recycled on Ni-NTA; also called His10-BRR2^HR; source: insect cells
Described as above.

The target of assay [3] is T3, full-length BRR2 (BRR2^FL) (human, UniProt O75643 1-2136).
T3 construct: BRR2 (SNRNP200), human, full length; The His10 tag is named only for the peptide SPOT array; also called His10-BRR2^FL; SNRNP200
The description is as above.

Assay [4] concerns the target T4, BRR2^HR-PRPF8^Jab1 complex (human, UniProt O75643 395-2129; Q6P2Q9 2064-2335).
T4 construct: PRPF8, human, Jab1/MPN-like domain, residues 2064-2335; source: purified BRR2^HR and PRPF8^Jab1 mixed in equimolar amounts
In words: SEC; competition: BRR2^HR with equimolar PRPF8^Jab1 and FBP21^116-376 10 min on ice, then with or without equimolar GST-C9ORF78 for 10 min; analytical SEC as above. A general note: SEC sorts molecules by how far they enter the pores of the column.

Assay [5] concerns the target T2, BRR2 helicase region (BRR2^HR, residues …). In words: cryo-EM structure; complexes purified by SEC, 20 mM Tris-HCl pH 8.0, 150 mM NaCl, 1 mM DTT, 5 mg/ml, 0.15% n-octylglucoside; Titan Krios 300 kV.

Experimental findings from article PMC8894380, “A multi-factor trafficking site on the spliceosome remodeling enzyme BRR2 recruits C9ORF78 to regulate alternative splicing” (Nature Communications, 2022) are described below.

Where a chain is given by its changes, count along the chain named. Numbers in names are those of the source.

T2 sequence (O75643 395-2129): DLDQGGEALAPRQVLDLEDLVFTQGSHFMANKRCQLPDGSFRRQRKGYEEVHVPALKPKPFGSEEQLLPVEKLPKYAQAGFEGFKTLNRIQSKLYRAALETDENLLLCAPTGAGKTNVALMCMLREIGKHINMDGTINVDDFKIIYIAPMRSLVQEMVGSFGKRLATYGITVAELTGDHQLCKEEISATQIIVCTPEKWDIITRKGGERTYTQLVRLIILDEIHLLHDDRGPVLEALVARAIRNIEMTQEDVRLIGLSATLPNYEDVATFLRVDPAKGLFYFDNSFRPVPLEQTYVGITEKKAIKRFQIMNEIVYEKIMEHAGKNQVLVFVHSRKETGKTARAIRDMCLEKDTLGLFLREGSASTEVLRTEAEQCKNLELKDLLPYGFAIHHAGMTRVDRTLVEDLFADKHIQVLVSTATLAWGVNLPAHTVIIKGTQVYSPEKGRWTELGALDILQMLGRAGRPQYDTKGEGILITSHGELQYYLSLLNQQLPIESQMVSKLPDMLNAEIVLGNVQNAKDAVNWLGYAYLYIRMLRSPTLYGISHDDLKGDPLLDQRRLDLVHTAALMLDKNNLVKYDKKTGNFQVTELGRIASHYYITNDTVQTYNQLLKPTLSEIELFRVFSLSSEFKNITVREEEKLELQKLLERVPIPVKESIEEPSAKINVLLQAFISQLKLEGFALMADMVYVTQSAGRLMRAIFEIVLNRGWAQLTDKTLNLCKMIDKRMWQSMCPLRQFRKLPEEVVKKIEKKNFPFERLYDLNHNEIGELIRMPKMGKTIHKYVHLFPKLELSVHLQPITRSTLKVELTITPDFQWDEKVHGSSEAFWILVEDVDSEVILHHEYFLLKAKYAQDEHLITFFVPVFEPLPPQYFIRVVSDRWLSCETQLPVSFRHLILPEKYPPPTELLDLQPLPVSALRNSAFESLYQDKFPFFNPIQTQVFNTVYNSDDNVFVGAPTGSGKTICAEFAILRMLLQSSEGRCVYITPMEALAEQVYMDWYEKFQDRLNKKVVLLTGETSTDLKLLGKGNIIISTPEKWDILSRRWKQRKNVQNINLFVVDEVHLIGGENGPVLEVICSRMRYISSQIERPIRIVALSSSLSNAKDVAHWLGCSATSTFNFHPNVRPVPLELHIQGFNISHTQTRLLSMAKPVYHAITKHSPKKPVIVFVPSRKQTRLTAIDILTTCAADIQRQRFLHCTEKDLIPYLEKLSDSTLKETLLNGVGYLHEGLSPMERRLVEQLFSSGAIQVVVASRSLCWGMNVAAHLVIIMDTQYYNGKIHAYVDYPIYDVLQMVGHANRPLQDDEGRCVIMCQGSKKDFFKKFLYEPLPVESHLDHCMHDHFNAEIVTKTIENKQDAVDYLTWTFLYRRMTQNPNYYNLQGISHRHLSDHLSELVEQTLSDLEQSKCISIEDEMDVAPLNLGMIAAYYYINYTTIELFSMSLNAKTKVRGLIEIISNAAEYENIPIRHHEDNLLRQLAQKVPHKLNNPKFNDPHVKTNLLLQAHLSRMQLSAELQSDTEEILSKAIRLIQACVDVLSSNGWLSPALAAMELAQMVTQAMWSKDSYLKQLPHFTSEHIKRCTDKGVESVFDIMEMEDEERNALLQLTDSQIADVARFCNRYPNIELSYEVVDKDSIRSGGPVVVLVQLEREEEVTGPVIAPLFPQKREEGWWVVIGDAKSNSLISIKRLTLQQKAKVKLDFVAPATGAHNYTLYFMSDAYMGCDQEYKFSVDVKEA

B1: His6-GST-C9ORF78 (natural protein, human)
chain: MPVVRKIFRRRRGDSESEEDEQDSEEVRLKLEETREVQNLRKRPNGVSAVALLVGEKVQEETTLVDDPFQMKTGGMVDMKKLKERGKDKISEEEDLHLGTSFSAETNRRDEDADMMKYIETELKKRKGIVEHEEQKVKPKNAEDCLYELPENIRVSSAKKTEEMLSNQMLSGIPEVDLGIDAKIKNIISTEDAKARLLAEQQNKKKDSETSFVPTNMAVNYVQHNRFYHEELNAPIRRNKEEPKARPLRVGDTEKPEPERSPPNRKRPANEKATDDYHYEKFKKMNRRY
notes: C9ORF78, human, 34 kDa; Tag cleavage led to degradation and was omitted for functional analyses in vitro; also called GST-C9ORF78^wt; source: E. coli BL21 RIL (pETM30), purified (Glutathione Sepharose, SEC); not shown: His6, N-terminal, kept; GST, N-terminal, kept
Turning to B1, the binding result in assay [1], in assay [2], in assay [3] and in assay [4] was “binds” throughout.

B2: C9ORF78 (His6/GST tag cleaved, co-purified with BRR2^HR) (natural protein, human)
chain: B1 chain
notes: C9ORF78, human; the four N-terminal and 231 C-terminal residues not located in the map; 4 + 54 + 231 residues add up to 289, the length that I recall for the whole protein; not shown: His6, N-terminal, cleaved; GST, N-terminal, cleaved
Regarding B2, the binding result in assay [5] is “binds”.

B3: GST-C9ORF78^F8A (natural protein, human)
chain: B1 chain with F8A
notes: C9ORF78, human, with F8A; source: E. coli BL21 RIL (pETM30), purified (Glutathione Sepharose, SEC); not shown: His6, N-terminal, kept; GST, N-terminal, kept
B3: the binding result in assay [2] is “binds”.

B4: PRPF8 Jab1 domain (PRPF8^Jab1; residues 2064-2335) (domain or fragment)
chain: not shown
notes: PRPF8, human, Jab1/MPN-like domain, residues 2064-2335; also called Jab1/MPN-like domain
For B4, the binding result in assay [2] was “binds”.

B5: FBP21^116-376 (domain or fragment, human, UniProt O75554 116-376, looked up)
chain: KKKRKKDPSKGRWVEGITSEGYHYYYDLISGASQWEKPEGFQGDLKKTAVKTVWVEGLSEDGFTYYYNTETGESRWEKPDDFIPHTSDLPSSKVNENSLGTLDESKSSDSHSDSDGEQEAEEGGVSTETEKPKIKFKEKNKNSDGGSDPETQKEKSIQKQNSLGSNEEKSKTLKKSNPYGEWQEIKQEVESHEEVDLELPSTENEYVSTSEADGGGEPKVVFKEKTVTSLGVMADGVAPVFKKRRTENGKSRNLRQRGDDQ
Turning to B5, in assay [4], the binding result is reported as “binds”.

B6: FBP21^200-376 (domain or fragment, human, UniProt O75554 200-376, looked up)
chain: HTSDLPSSKVNENSLGTLDESKSSDSHSDSDGEQEAEEGGVSTETEKPKIKFKEKNKNSDGGSDPETQKEKSIQKQNSLGSNEEKSKTLKKSNPYGEWQEIKQEVESHEEVDLELPSTENEYVSTSEADGGGEPKVVFKEKTVTSLGVMADGVAPVFKKRRTENGKSRNLRQRGDDQ
As for B6, in assay [5], the binding result is “binds”.
